According to article PMC5686756 (2017):

Assays:
[1] = target: T1, GB1-tagged ks-vFLIP (residues 1 to 188) (Kaposi's sarcoma-associated herpesvirus …, UniProt Q76RF1 1-188); test: ITC; apparent Kd, competition in presence of spIKKγ (deionized water)
[2] = target: T1, GB1-tagged ks-vFLIP (residues 1 to 188); test: ITC; in buffer

B1: IKKγ fragment encompassing residues 150 to 272 (domain or fragment)
chain: LGELQESQSRLEAATKECQALEGRARAASEQARQLESEREALQQQHSVQVDQLRMQGQSVEAALRMERQAASEEKRKLAQLQVAYHQLFQEYDNHIKSSVVGSERKRGMQLEDLKQQLQQAEE
- Kd [1]: 30.4 µM
- Kd [2]: 0.2 µM
